{
  "source": "paper PMC4728371",
  "about": "(Genome Research, 2016)",
  "proteins": {"B1": {"name": "ZAK LZ-SAM (residues 286-410), purified (domain or fragment, human, UniProt Q9NYL2-1 286-410, looked up)", "chain": "EIEATLERLKKLERDLSFKEQELKERERRLKMWEQKLTEQSNTPLLPSFEIGAWTEDDVYCWVQQLVRKGDSSAEMSVYASLFKENNITGKRLLLLEEEDLKDMGIVSKGHIIHFKSAIEKLTHD"}},
  "target": "the molecule itself",
  "assay": "SEC-MALS",
  "data": [
    {"protein": "B1", "values": [
      {"measurement": "stoichiometry N", "result": 2}
    ]}
  ]
}
